# Biological target: Paracoccidioides americana (Pb03) Cbp1 (Paracoccidioides americana (Pb03))
# Assay: crystal structure
substance,measurement,value
Paracoccidioides americana (Pb03) Cbp1 (natural protein),stoichiometry N,2

# Reference: doi:10.1101/2021.09.16.459956
